Results as given in publication PMC4234684 (Cellular and molecular life sciences : CMLS, 2014).

Assay: Michaelis–Menten kinetic analysis with colorimetric substrate nitrocefin
Format: biochemical
Details: PBS, 30 °C, mean ± SEM

B1: Enterobacter chloacae P99 beta-lactamase (protein, UniProt P05364 21-381, looked up)
Beta-lactamase: TPVSEKQLAEVVANTITPLMKAQSVPGMAVAVIYQGKPHYYTFGKADIAANKPVTPQTLFELGSISKTFTGVLGGDAIARGEISLDDAVTRYWPQLTGKQWQGIRMLDLATYTAGGLPLQVPDEVTDNASLLRFYQNWQPQWKPGTTRLYANASIGLFGALAVKPSGMPYEQAMTTRVLKPLKLDHTWINVPKAEEAHYAWGYRDGKAVRVSPGMLDAQAYGVKTNVQDMANWVMANMAPENVADASLKQGIALAQSRYWRIGSMYQGLGWEMLNWPVEANTVVEGSDSKVALAPLPVAEVNPPAPPVKASWVHKTGSTGGFGSYVAFIPEKQIGIVMLANTSYPNPARVEAAYHILEALQ
modifications: C-terminal His6 tag
kcat/Km: 7.5e+06 ± 600000 M⁻¹ s⁻¹
